{
  "source": "patent US20230348569A1",
  "biological_target": "SARS-CoV-2 spike protein variant V376F on VSV pseudoparticles (SARS-CoV-2) (UniProt P0DTC2)",
  "experiment": "cell-based or functional assay",
  "data": [
    {"substance": "mAb10987 (antibody)", "values": [
      {"measurement": "Neutralization IC50", "value": 0.0178, "unit": "nM"}
    ]}
  ]
}
